From patent US20140370037A1

Legend:
[1] = target: human DLL3 on cells (human), Q9NYJ7; experiment: cell-based or functional assay
[2] = target: human DLL3 on cells (human) (UniProt Q9NYJ7); experiment: cell-based or functional assay
human DLL3 on cells (human), sequence (Q9NYJ7 27-618): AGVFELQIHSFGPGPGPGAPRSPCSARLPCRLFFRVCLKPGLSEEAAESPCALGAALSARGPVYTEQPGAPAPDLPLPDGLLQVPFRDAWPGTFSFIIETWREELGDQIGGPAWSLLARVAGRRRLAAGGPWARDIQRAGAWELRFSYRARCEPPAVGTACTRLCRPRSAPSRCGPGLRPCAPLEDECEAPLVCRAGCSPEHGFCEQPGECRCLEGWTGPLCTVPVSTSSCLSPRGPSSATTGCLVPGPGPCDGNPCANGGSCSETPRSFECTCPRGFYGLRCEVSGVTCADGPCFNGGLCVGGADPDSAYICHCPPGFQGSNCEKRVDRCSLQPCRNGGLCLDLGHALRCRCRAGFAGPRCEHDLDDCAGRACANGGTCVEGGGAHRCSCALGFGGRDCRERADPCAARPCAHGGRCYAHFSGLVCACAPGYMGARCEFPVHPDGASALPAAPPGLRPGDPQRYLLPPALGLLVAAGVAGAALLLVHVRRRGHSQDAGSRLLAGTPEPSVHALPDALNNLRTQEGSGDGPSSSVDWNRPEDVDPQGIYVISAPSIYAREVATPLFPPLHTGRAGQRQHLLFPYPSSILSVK

human DLL3 on cells (human), Q9NYJ7, sequence (Q9NYJ7 27-618): as above

Row | Binder | EC50 of killing of OV26 NTX tumor cells with anti-mouse IgG Fab-saporin [2] [pM] | also measured
1 | hSC16.15-ADC1 (antibody, human IgG1, V domains shown, here or on the partner: PBD dimer drug-linker ADC1 on reduced Cys residues (positions not stated)) VL: AIQLTQSPSSLSASVGDRVTITCRASENIYYNLAWYQQKPGKAPKLLIYTANSLEDGVPSRFSGSGSGTDFTLTISSLQPEDFATYFCKQAYDVPPTFGGGTKLEIK VH: QVQLVQSGAEVKKPGASVKVSCKASGYTFTRYWIHWIRQAPGQGLEWMGYINPTTVYTEFNQNFKDRVTMTRDTSTSTVYMELSSLRSEDTAVYYCARGGSNFFDYWGQGTTVTVSS |  | concentration that killed 50% of LU37 NTX cells (7 days, Cell Titer Glo) [1]: < 10 ng/mL
2 | SC16.34 (antibody, V domains shown) VH: QIQLVQSGPELKRPGETVKISCKASGYTFTNYGMNWVKQAPGKGLKWMGWINTYTGDPTYADDFKGRFAFSLETSASTAYLQINNLKNEDTATYFCARIGGNSPSDYWGQGTSLTVSS VL: SIVMTQTPKFLLVSAGDRVTITCKASQSVSNDVAWYQQKPGQSPKLLIYYASNRYSGVPDRFTGSGYGTDFTFTISTVQAEDLAVYFCQQDYSSPWTFGGGTKLEIK | 5.7 | 
3 | SC16.15 (antibody, V domains shown) VH: QVQLQQSGAELAKPGASVKMSCKASGYTFTRYWIHWIKQRPGQGLEWIGYINPTTVYTEFNQNFKDKATLTADKSSTTASMQLSSLTSEDSAVYYCARGGSNFFDYWGQGTTLTVSS VL: DIQMTQSPASLAASVGETVAITCRASENIYYNLAWYQQKQGKSPQLLIYTANSLEDGVPSRFSGSGSGTQYSLKINSMQPEDSATYFCKQAYDVPPTFGGGTKLEIK | 0.14 | 
4 | hSC16.56-ADC1 (antibody, human IgG1, V domains shown, here or on the partner: PBD dimer drug-linker ADC1 on reduced Cys residues (positions not stated)) VL: EIVMTQSPATLSVSPGERATLSCKASQSVSNDVVWYQQKPGQAPRLLIYYASNRYTGIPARFSGSGSGTEFTLTISSLQSEDFAVYYCQQDYTSPWTFGQGTKLEIKR VH: QVQLVQSGAEVKKPGASVKVSCKASGYTFTNYGMNWVRQAPGQGLEWMGWINTYTGEPTYADDFKGRVTMTTDTSTSTAYMELRSLRSDDTAVYYCARIGDSSPSDYWGQGTLVTVSS |  | dose that killed 50% of naïve KDY66 cells (7 days, Cell Titer Glo) [1]: 13.3 pM
